Laboratory results taken from patent publication US6617114B1, “Identification of drug complementary combinatorial libraries” (priority 1996, dated 2003).
Where no end group is shown, it is not given here.

Assays:
[1] = target: estrogen receptor α (ER) (Homo sapiens, UniProt P03372); assay: Phage ELISA competition on immobilized estrogen receptor
[2] = target: T1, UL44 (Human cytomegalovirus, UniProt P16790); assay: Phage ELISA competition on immobilized GSTUL44, UL44-specific phage; assay type: binding; conditions: various concentrations of competitor
T1 construct: made in house; host or cells: E. coli DH5aF′
Description: (§1) To map the. binding site for the UL44 specific phage displaying the constrained peptide from the X10C library, we competed this phage for binding with linear double stranded DNA. To show the specificity of binding for the substrates and the phage, both phage were competed with both substrates. Microtiter plates were coated with GSTUL44 protein and blocked as described above. Phage specific for either the GST portion or the UL44 portion of the fusion were then added to separate wells and at the same time various concentrations of either GSH or DNA were added. It is important to keep in mind that these phage were isolated from the same affinity selection run.

[3] = target: T2, GST portion of the GSTUL44 fusion (Schistosoma japonicum, UniProt P08515); assay: Phage ELISA competition on immobilized GSTUL44, GST-specific phage; assay type: binding; conditions: various concentrations of competitor
T2 construct: made in house; host or cells: E. coli DH5aF′
Description: as §1

[4] = target: T3, Agrobacterium faecalis beta-glucosidase (Agrobacterium sp., UniProt P12614); assay: Phage ELISA competition with conduritol on beta-glucosidase; assay type: binding; conditions: 3 mM conduritol for 3 hours
T3 sequence (P12614 1-459): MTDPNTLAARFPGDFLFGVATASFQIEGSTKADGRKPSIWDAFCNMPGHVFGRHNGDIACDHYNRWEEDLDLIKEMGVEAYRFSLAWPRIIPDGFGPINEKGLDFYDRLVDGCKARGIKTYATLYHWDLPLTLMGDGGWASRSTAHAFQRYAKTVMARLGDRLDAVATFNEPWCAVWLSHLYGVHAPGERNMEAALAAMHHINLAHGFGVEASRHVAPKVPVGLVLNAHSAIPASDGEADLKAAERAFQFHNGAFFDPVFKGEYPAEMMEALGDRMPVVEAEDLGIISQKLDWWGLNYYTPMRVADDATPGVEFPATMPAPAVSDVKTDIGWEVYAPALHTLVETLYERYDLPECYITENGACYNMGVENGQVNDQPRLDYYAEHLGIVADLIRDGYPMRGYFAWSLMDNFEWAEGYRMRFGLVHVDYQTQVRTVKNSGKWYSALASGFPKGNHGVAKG
Description: For the first method of affinity purification, phage libraries were mixed with 1 μg biotinylated target protein in solution and allowed to incubate at room temperature for 4 hours. Phage:protein complexes were then captured on streptavidin paramagnetic beads (Promega, cat#Z5482) by adding beads and incubating the tubes while rotating at room temperature for 30 minutes. The complexes were then drawn to the sides of the tubes using a magnet and the beads were washed with TBST containing 5 mM biotin. Beads were washed once in the first round of panning and 3 times for each additional round. Phage were eluted and amplified using the sequential procedure described in example 3. In the second method of affinity purification, phage libraries were mixed with 1 μg biotinylated target protein that was first captured on streptavidin paramagnetic beads. After the protein was bound, the beads were washed once with TBST containing 5 mM biotin to block the remaining binding sites on streptavidin. The libraries and beads were then mixed at room temperature on a rotator for 4 hours and washed, eluted and amplified as above. Phage ELISAs were carried out by first coating a microtiter plate (Immulon4, Dynex) with 1 μg streptavidin, followed by blocking with BSA. Biotinylated protein was then added to the wells and allowed to bind to the streptavidin for 1 hour. […]

[5] = target: T4, GST-UL44 (Human cytomegalovirus, UniProt P16790); assay: Enzyme Linked Spectrophotometric Assay (ELSA) for CMV UL44; assay type: binding
T4 construct: made in house; host or cells: E. coli DH5aF′
Description: IMMULON-4 (cat.#011-010-3855) 96-well microtitration test plates were purchased from Dynatech. Bovine serum, albumin (BSA) (A2153), Streptavidin alkaline phosphatase (SA-AP) (S2890), TWEEN-20 detergent (P1379), and p-nitrophenyl phosphate tablets (pNPP) (N-1891, N-2770) were purchased from Sigma. Phosphate buffered saline (PBS) (21600-010) was obtained from Gibco-BRL. Ultrapure glycerol (#16374) was purchased from USB. Biotinylated surrogate ligands were prepared as a 1 mM stock solution in the appropriate solvent (H2O or 10% acetonitrile). SA-AP was prepared as a 1 mg/ml stock solution in PBS containing 10% glycerol and stored in aliquots at −80° C.
Target protein was immobilized in microtiter wells by incubating 0.5-2.0 μg per well in 100 μl of 0.1 M NaHCO3 overnight at 4° C. […] During the 1 hour blocking period, the SA-AP:surrogate ligand conjugate was prepared by mixing 2 μg SA-AP and 50 pmol biotinylated surrogate ligand for each well of target protein. (This corresponds to a 1:1 ratio of biotinylated peptide to biotin binding sites.) The mixture was incubated at room temperature for 15-20 minutes and then diluted with Tris-buffered saline-TWEEN-20 detergent (TBST) 10 mM Tris-HCl, pH 8.0, 150 mM NaCl, 0.05% TWEEN-20 detergent such that there was 100 μl of conjugate per well. […]
After blocking, the wells were washed once with 200 μl TBST. […] The absorbance was read at 405 nm.

[6] = target: T5, E. coli proline tRNA synthetase (E. coli), P16659; assay: cell-based or functional assay
T5 chain: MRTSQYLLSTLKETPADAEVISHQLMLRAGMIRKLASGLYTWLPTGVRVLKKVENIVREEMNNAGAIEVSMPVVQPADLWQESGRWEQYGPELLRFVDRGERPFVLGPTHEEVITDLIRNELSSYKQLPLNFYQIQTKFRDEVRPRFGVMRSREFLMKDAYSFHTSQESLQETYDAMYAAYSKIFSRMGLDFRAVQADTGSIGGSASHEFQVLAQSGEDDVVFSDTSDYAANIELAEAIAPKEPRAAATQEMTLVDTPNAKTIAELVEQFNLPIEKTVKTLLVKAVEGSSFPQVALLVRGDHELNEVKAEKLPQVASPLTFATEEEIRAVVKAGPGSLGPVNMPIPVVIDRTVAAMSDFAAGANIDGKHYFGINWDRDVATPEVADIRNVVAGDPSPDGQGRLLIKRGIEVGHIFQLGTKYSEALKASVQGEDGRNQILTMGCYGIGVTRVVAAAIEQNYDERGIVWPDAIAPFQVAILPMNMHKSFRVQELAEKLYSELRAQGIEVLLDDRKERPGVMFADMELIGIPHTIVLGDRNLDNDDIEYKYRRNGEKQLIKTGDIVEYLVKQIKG

[7] = target: T5, E. coli proline tRNA synthetase (E. …); assay: tRNA charging (enzyme activity) assay, competitive in respect to proline
[8] = target: T6, carboxypeptidase B from pig pancreas (pig), P09955; assay: cross reactivity phage ELISA
T6 chain: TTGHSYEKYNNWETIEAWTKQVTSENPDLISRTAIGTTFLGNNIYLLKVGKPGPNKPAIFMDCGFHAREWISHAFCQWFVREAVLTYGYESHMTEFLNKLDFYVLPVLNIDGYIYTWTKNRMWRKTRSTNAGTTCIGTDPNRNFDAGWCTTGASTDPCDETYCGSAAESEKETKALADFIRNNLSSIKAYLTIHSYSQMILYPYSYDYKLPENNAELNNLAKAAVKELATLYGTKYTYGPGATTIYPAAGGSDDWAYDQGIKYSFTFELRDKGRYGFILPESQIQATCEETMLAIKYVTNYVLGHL

[9] = target: T7, Yeast alcohol dehydrogenase (yeast), P00330; assay: cross reactivity phage ELISA
T7 chain: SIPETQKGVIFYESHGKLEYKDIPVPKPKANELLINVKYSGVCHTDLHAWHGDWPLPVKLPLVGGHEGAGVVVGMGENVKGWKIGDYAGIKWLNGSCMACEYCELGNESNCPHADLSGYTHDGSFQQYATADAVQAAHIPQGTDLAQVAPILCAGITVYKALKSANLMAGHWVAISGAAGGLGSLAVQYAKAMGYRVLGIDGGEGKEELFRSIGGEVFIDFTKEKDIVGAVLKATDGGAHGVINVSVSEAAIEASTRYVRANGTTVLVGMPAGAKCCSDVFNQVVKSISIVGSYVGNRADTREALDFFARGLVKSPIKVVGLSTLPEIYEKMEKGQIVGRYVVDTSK

estrogen receptor α (ER), sequence (P03372 whole entry): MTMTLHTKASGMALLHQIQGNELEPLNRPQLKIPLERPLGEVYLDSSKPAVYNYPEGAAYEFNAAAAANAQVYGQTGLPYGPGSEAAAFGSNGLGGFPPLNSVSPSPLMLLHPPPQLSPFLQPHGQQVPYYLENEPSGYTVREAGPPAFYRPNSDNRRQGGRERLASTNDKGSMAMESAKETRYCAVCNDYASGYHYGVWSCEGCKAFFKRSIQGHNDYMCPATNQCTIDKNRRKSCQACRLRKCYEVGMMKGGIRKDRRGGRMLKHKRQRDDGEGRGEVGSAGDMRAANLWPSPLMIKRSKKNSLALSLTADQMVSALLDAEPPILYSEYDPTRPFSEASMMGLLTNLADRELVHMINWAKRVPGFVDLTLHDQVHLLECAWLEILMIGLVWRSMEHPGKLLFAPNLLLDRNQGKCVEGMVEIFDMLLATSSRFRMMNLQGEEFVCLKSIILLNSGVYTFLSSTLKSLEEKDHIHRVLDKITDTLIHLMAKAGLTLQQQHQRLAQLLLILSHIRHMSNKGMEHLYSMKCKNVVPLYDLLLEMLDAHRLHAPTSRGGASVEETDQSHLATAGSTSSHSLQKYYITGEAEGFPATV
T4 sequence (P16790 whole entry): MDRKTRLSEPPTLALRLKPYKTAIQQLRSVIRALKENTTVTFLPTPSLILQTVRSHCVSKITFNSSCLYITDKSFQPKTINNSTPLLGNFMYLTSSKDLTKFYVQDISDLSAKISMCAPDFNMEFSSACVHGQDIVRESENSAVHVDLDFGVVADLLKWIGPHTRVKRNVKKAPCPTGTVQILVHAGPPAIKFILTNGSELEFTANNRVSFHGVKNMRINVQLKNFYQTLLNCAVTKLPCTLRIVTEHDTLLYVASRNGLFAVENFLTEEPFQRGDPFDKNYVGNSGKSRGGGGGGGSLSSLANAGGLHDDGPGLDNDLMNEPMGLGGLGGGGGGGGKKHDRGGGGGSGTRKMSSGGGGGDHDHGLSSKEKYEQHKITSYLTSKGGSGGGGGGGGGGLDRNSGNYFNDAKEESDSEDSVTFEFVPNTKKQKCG
T2 sequence (P08515 whole entry, the tested form may be a part): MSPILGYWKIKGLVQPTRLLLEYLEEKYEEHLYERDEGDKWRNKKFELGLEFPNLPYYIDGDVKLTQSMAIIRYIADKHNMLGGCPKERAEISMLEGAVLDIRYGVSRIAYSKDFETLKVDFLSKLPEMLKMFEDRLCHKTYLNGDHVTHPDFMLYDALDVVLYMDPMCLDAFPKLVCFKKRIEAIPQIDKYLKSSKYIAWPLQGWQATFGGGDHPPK
T1 sequence (P16790 whole entry): as the sequence (P16790 whole entry) above

In the case of 4-hydroxytamoxifen [reference compound], the “competition with ER binding phage selected in the absence of estradiol” value [1] is reported as “does not inhibit”.

For `N[C@@H](CCC(=O)N[C@@H](CS)C(=O)NCC(=O)O)C(=O)O` [GSH, glutathione], the “binding of UL44 specific phage (X10C peptide) to GSTUL44 in presence of competitor” value [2] was “no effect” and the “binding of GST specific phage to GSTUL44 in presence of competitor” value [3] was “competed in a dose dependent fashion”.

With `O[C@@H]1[C@H](O)[C@@H](O)C=C[C@H]1O` [conduritol] the “binding of phage from group 1 after conduritol” value [4] was “unaffected” and the “binding of phage from group 2 after conduritol” value [4] was “inhibited”.

“Biotin-H-Ser-Gly-Ser-Gly-Glu-His-Val-Cys-Ser-Trp-Gly-Trp-Gly-Arg-Cys-OH [UL44 BioKey]” was tested, and the “specificity of binding of biotinylated peptide” value ([5]; tested on streptavidin, GST-UL44, GST, GST-SrcSH3) was “binds specifically to UL44”.

In the case of “H-Ser-Gly-Ser-Gly-Glu-His-Val-Cys-Ser-Trp-Gly-Trp-Gly-Arg-Cys-OH (H-SGSGEHVCSWGWGRC-OH; cysteine pairing not given here) [non-biotinylated UL44 peptide]”, the “competition of biotinylated UL44 peptide binding” value ([5]; self-competition) is reported as “competed specifically”.

For “W L D G L P L Y H E V (WLDGLPLYHEV) [Peptide 5]”, the “effect of antiestrogens on phage binding to ER” value ([1]; phage selected with estradiol, 100 μM tamoxifen, nafoxidine, clomiphene) was “S S L T S R D F G S W Y A S R * (SEQ ID NO:156)”.

B1: non-biotinylated ProRS peptide (peptide)
peptide: SRVCAIWPDLDGCSR
modifications: not fully specified; cysteine pairing not given here
With B1 the charging assay (enzymatic activity of the target) [6] was 50 % inhibition and the Ki [7] was over 500 µM.

B2: phage displaying … (peptide)
peptide: SRLLEVSPGWWQMSR
modifications: not checked
Molecule B2 has a fold ELISA signal on the specific target vs any other target tested [8] of over 10 fold.

B3: phage displaying … (peptide)
peptide: SSFRELKPGWWSYSR
modifications: not checked
In the case of B3, the fold ELISA signal on the specific target vs any other target tested [8] is reported as over 10 fold.

B4: phage displaying … (peptide)
peptide: SSWGDYFNWRDGLSR
modifications: not checked
B4 was tested, and the fold ELISA signal on the specific target vs any other target tested [8] was over 10 fold.

B5: phage displaying … (peptide)
peptide: SRQVEVFKPWPVYSR
modifications: not checked
For B5, the fold ELISA signal on the specific target vs any other target tested [9] was over 10 fold.

B6: phage displaying … (peptide)
peptide: SSSFKPWPIYLGSSR
modifications: not checked
For B6, the fold ELISA signal on the specific target vs any other target tested [9] was over 10 fold.

B7: phage displaying … (peptide)
peptide: SVSVGMKPSPRP
modifications: not checked
With B7 the fold ELISA signal on the specific target vs any other target tested [9] was over 10 fold.

B8: phage displaying … (peptide)
peptide: SSNYWWQSPVLSRHSR
modifications: not checked
Molecule B8 has a fold ELISA signal on the specific target vs any other target tested [9] of over 10 fold.

B9: phage displaying … (peptide)
peptide: SSWQGNVLLGNWISR
modifications: not checked
For B9, the fold ELISA signal on the specific target vs any other target tested [9] was over 10 fold.

B10: phage displaying … (peptide)
peptide: SSLLNESRLQWSTSR
modifications: not checked
B10 gave a fold ELISA signal on the specific target vs any other target tested [9] of over 10 fold.
